Assay results reported in the supplement of paper PMC9732359.
± gives the uncertainty stated by the source.

Test: protein stability index of a GFP-peptide fusion (yeast GPS) (PSI 1-4); higher = more stable; sorted into four equal gates, so the index is relative within each strain
How it was run: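 Sequencing reads from sorted gates were used to score each peptide. The library consisted of tiled 17-residue yeast protein peptides fused downstream of GFP on a Cherry-expressing plasmid, pooled and carried in yeast. Mid-log cultures in leucine-free medium were split into four equal gates by GFP/Cherry ratio, and each gate's plasmids were PCR-amplified and Illumina-sequenced. The protein stability index adds up, over all gates, the read frequency multiplied by the gate number.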

Row | Sequence | protein stability index (doa10∆) | protein stability index (pdr5∆) | protein stability index (san1∆) | protein stability index (ubr1∆)
1 | FDALRSLDDNSTSLEKQ [YJL041W/NSP1] | 2.99 ± 0.086 | 3.03 ± 0.11 | 3 ± 0.062 | 3.02 ± 0.066
2 | KLEAEEIPSEDQNEFLL [FAS2] | 2.62 ± 0.13 | 1.75 ± 0.092 | 2.25 ± 0.11 | 3.51 ± 0.16
3 | YGSSPKLLATSTKIIML [SRB8] | 1.59 ± 0.065 | 1.7 ± 0.063 | 1.63 ± 0.16 | 1.24 ± 0.069
4 | TKLDQVWGSETVASSKV [RPL4A] | 2.72 ± 0.075 | 3 ± 0.1 | 2.84 ± 0.05 | 2.98 ± 0.044
5 | VQKDTAIIRLHPSIYTQ [POP1] | 2.73 ± 0.29 | 2.19 ± 0.11 |  | 1.88 ± 0.14
6 | DYIEFNITFSEELVSLA [YJL039C/NUP192] |  |  | 1.54 ± 0.27 | 1.61 ± 0.28
7 | SHNVDELLEHIETIGHL [RPN5] | 2.51 ± 0.084 | 2.24 ± 0.1 | 2.14 ± 0.11 | 1.53 ± 0.082
8 | LPKFLTVQYVRFFWKRS [UBP6] | 1.62 ± 0.04 | 1.35 ± 0.035 | 1.24 ± 0.085 | 1.19 ± 0.032
9 | SAEYLQMSLEANVVDIT [YJR042W/NUP85] | 1.8 ± 0.064 | 2.19 ± 0.065 | 2.05 ± 0.14 | 2.38 ± 0.058
10 | GIRWELISRLCPNSTGA [RPT1] | 2.04 ± 0.047 | 2.25 ± 0.05 | 2.12 ± 0.076 | 2.19 ± 0.038
11 | LEELAETFQDTFSGALG [FAS2] | 2.95 ± 0.065 | 3.06 ± 0.077 | 3.21 ± 0.05 | 3.31 ± 0.067
12 | TSLLDSLISVLEASLNS [YJL039C/NUP192] | 1.94 ± 0.083 | 1.77 ± 0.09 | 1.87 ± 0.19 | 1.58 ± 0.08
13 | YPNSSKLKRNSDRREHD [LIN1] | 3.25 ± 0.083 | 3.1 ± 0.067 | 3.02 ± 0.045 | 3.03 ± 0.075
14 | ELALIEEAYDNPHDTLN [PRP8] | 3.32 ± 0.088 | 3.3 ± 0.077 | 3.51 ± 0.076 | 3.41 ± 0.07
15 | LQRASSKMGAPWCVKPE [ITC1] | 3.14 ± 0.089 | 3.29 ± 0.078 | 3.33 ± 0.055 | 3.27 ± 0.066
16 | LALINYGRQELADDLIT [RPN2] |  | 1.82 ± 0.26 | 1.57 ± 0.28 | 1.49 ± 0.14
17 | IRFRIEREVFVDVKPKS [RPC25] | 2.13 ± 0.12 | 2.66 ± 0.16 | 2.16 ± 0.13 | 2.12 ± 0.25
18 | EETSHLLTVTPGPRLLY [RPN10] | 2.61 ± 0.06 | 2.69 ± 0.074 | 2.54 ± 0.091 | 3.06 ± 0.057
19 | LIIQKIPSLQNNIEENL [ECM29] | 2.91 ± 0.067 | 2.88 ± 0.066 | 2.66 ± 0.065 | 2.98 ± 0.071
20 | ATRTLVASIQNDPSAEV [YCG1] |  | 3.41 ± 0.16 | 2.79 ± 0.27 | 
21 | YIHLAYSRSVDKEWVFA [SSN2] | 1.81 ± 0.079 | 1.5 ± 0.057 | 1.84 ± 0.091 | 1.72 ± 0.038
22 | VLAKRMANLSQIYTQRA [SCL1] | 2.52 ± 0.12 | 3 ± 0.27 | 2.34 ± 0.12 | 2.69 ± 0.091
23 | ILSKKWGFTNLDRPEYL [RPL10] |  |  |  | 2.89 ± 0.26
24 | PGPLPDTDSKPSSQSQN [YLR018C/POM34] | 3.06 ± 0.079 | 3.15 ± 0.061 | 3.17 ± 0.063 | 2.98 ± 0.061
25 | DIFGDSELFDEWFEQNN [ISW2] | 2.36 ± 0.069 | 2.49 ± 0.072 | 1.31 ± 0.15 | 1.63 ± 0.056
26 | YSLRLINKEIFHHWLVE [SRB8] | 1.75 ± 0.064 | 1.52 ± 0.081 | 1.55 ± 0.13 | 1.59 ± 0.068

Row | Sequence | protein stability index (doa10∆) | protein stability index (pdr5∆) | protein stability index (san1∆) | protein stability index (ubr1∆)
27 | SKQNGIEQSITKNIPIT [SSN8] | 2.63 ± 0.082 | 2.67 ± 0.069 | 2.66 ± 0.079 | 2.84 ± 0.068
28 | YKVEHPFFARFKLRIQT [RPB11] | 2 ± 0.097 | 1.28 ± 0.057 | 1.37 ± 0.11 | 1.31 ± 0.16
29 | PLLSLDVTPISMFGSDQ [RPN4] | 2.75 ± 0.12 | 2.79 ± 0.18 | 3.12 ± 0.13 | 3.18 ± 0.17
30 | TVTIASSLNLEDTPAND [RPB8] | 2.83 ± 0.066 | 2.81 ± 0.054 | 2.65 ± 0.06 | 2.88 ± 0.067
31 | INFKSREAIRPGHEMED [AAR2] | 3.33 ± 0.097 | 3.28 ± 0.091 | 3.44 ± 0.058 | 3.38 ± 0.084
32 | PQDILSKLYLLLARVFE [SNF11] | 2.14 ± 0.044 | 2.37 ± 0.052 | 2.2 ± 0.069 | 2.4 ± 0.041
33 | LDLLRPVVRAPTVKYNR [RPL13A] | 1.64 ± 0.13 | 2.38 ± 0.2 | 1.7 ± 0.17 | 2.08 ± 0.11
34 | RTKFVRSLVREIAGLSP [RPL36A] | 2.59 ± 0.19 | 2.71 ± 0.19 | 2.85 ± 0.086 | 2.92 ± 0.09
35 | EKTINDLQRTQTLSEKE [YIL149C/MLP2] | 2.97 ± 0.071 | 3.03 ± 0.06 | 2.94 ± 0.044 | 2.94 ± 0.042
36 | FLESSKEIDPSQTTQLA [FAS2] | 2.89 ± 0.11 | 3 ± 0.085 | 2.6 ± 0.084 | 2.42 ± 0.14
37 | DFDGDEMNLHVPQSEET [RPO21] | 3.04 ± 0.083 | 3.12 ± 0.063 | 2.98 ± 0.045 | 3.23 ± 0.074
38 | VCFNNLVDENTDYLYRR [YCS4] | 2.61 ± 0.067 | 2.56 ± 0.05 | 2.48 ± 0.081 | 2.08 ± 0.037
39 | LSIAIVGKDTPFTIYDG [PRE5] | 2.87 ± 0.066 | 2.94 ± 0.054 | 2.78 ± 0.08 | 3.07 ± 0.047
40 | QWSMVAQRLQISDYQQL [SWI1] | 1.53 ± 0.057 | 1.65 ± 0.054 | 1.59 ± 0.12 | 1.41 ± 0.054
41 | NIELHSLYTSREPRVVS [PUP1] | 2.56 ± 0.1 | 3.1 ± 0.068 | 3.22 ± 0.09 | 3.07 ± 0.078
42 | GLAVGLALINYGRQELA [RPN2] | 1.3 ± 0.11 | 1.21 ± 0.076 | 1.58 ± 0.24 | 1.09 ± 0.053
43 | HRLIATHTNLERDEQKR [SNF2] | 3.38 ± 0.069 | 3.25 ± 0.074 | 3.01 ± 0.11 | 3.32 ± 0.048
44 | VRIPPDQFHRDTISAIT [RPC25] | 1.91 ± 0.042 | 2.43 ± 0.048 | 2.02 ± 0.064 | 1.8 ± 0.032
45 | RKDENQFSYVDSSMTTV [AAR2] | 2.98 ± 0.041 | 3.09 ± 0.045 | 3 ± 0.033 | 3.06 ± 0.04
46 | VGKTVKQLIMESQEKYM [NSL1] | 3.17 ± 0.097 | 3.18 ± 0.073 | 2.8 ± 0.067 | 3.34 ± 0.055
47 | DVECIKAKSHFTNIISR [YJL039C/NUP192] | 3.04 ± 0.092 | 3.1 ± 0.098 | 2.73 ± 0.078 | 2.97 ± 0.056
48 | TELLDYATKLSKFTKIP [MED4] |  | 2.71 ± 0.23 | 2.98 ± 0.16 | 
49 | SVPIWVDTSTELESMLE [RRP6] | 3.07 ± 0.12 | 3.28 ± 0.16 | 3.06 ± 0.063 | 2.96 ± 0.085
50 | EARLFNIWGTVRTNRFD [ECM29] | 2.61 ± 0.19 | 2.14 ± 0.15 |  | 2.32 ± 0.28
51 | RERRAALTDFERFQVMV [RPL14A] | 1.77 ± 0.12 | 2.24 ± 0.094 | 1.41 ± 0.13 | 1.8 ± 0.07
